Test results as given in PMC9233703.

How the values were obtained:
[1] = biological target: bovine brain tubulin polymerized into the microtubule lattice (bovine) (UniProt Q6B856); assay: motor-pulling assay (TIRF microscopy); taxol-stabilized microtubules, 10 μM taxol, held by digoxigenin-labeled tubulin; 3.8 kb biotinylated DNA linker; 6 nM biotinylated kinesin-1; 1 mM ATP, 28 °C
[2] = biological target: bovine brain tubulin polymerized into the microtubule lattice (bovine) (UniProt Q6B856); assay: motor-pulling assay (TIRF microscopy); GDP-microtubules with GMPCPP-tubulin caps held on the surface by anti-digoxigenin antibody; tubulin with 3.8 kb biotinylated DNA linker pulled along the microtubule axis by biotinylated kinesin-1 (0.5-9 nM) joined via neutravidin; 1 mM ATP, SYTOX Green, 28 °C
[3] = biological target: bovine brain tubulin polymerized into the microtubule lattice (bovine) (UniProt Q6B856); assay: optical tweezer force spectroscopy; taxol-stabilized microtubules copolymerized with biotinylated tubulin, affixed to neutravidin-coated coverslip; single tubulin pulled by its α-tubulin CTT through an 8.2 kb DNA linker and an anti-digoxigenin bead, perpendicular to the microtubule axis; constant pulling velocity 0.32 μm/s; BRB80, 10 μM taxol

bovine brain tubulin labeled with an oligo-DNA handle on the α-tubulin C-terminal tail (SSL method), hybridized to a long DNA linker (from UniProt Q6B856 1-445) (complex)
median rupture time under pulling by kinesin-1 (6 nM) [1]: 18 s
decay time of the rupture-time histogram (4.5-9 nM biotinylated kinesin) [2]: 8.8 s
median rupture time under pulling by kinesin-1 (plateau at high kinesin concentration) [2]: 8 s
percentage of DNA remained on the microtubules after 5 min with 6 nM biotinylated kinesin-1 [2]: 59%
force typically required to remove tubulin from the lattice [3]: 30 pN
lifetime in the lattice at zero force estimated from the rupture force histogram (Dudko method, single-step extraction) [3]: 40 s
rupture force [3]: 33.8 pN
